Laboratory results as given in patent US20160376333A1 (University of Washington, published 2016).
Numbering of substitutions follows the chain as printed. Names and notes keep the numbering of the source.

How the values were obtained:
[1] = target: T1, human Bcl-B a.a. 11-175 with C-terminal avi-6his tag (human); assay: BLI at a single analyte concentration (50 nM, 600 s association, then buffer); biotinylated BCL2 protein on a streptavidin sensor
T1 construct: also called BCL2L10
T1 chain: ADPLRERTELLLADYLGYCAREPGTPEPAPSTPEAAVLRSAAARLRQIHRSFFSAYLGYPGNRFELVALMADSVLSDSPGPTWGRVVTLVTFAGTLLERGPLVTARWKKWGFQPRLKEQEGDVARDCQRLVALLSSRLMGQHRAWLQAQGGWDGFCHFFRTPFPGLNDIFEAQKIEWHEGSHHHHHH

[2] = target: T2, human Mcl-1 a.a. 172-327 with C-terminal avi-6his tag (human); assay: as above
T2 chain: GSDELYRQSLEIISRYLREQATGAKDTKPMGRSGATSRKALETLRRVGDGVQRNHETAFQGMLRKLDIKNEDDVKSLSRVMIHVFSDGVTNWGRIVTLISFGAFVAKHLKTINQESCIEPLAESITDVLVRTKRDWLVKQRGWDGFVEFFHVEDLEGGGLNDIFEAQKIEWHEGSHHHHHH

[3] = target: T3, human Bcl-2 a.a. 1-207 with C-terminal avi-6his tag (human, UniProt P10415 2-207); assay: as above
[4] = target: T4, human Bcl-w a.a. 1-182 with C-terminal avi-6his tag (human, UniProt Q92843 1-182); assay: as above
T4 construct: range 1-182; also called BCL2L2
T4 sequence: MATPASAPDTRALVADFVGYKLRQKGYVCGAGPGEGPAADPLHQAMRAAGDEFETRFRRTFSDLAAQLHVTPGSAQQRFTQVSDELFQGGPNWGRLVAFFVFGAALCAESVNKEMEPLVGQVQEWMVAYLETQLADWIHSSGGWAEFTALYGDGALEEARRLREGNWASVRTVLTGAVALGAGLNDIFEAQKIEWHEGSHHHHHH

[5] = target: T5, human Bcl-XL a.a. 1-205 with C-terminal avi-6his tag (human, UniProt Q07817 2-206); assay: as above
T5 construct: also called BCL2L1

[6] = target: T6, human Bfl-1 a.a. 1-153 (C4S) with C-terminal avi-6his tag (human); assay: as above
T6 construct: also called A1/Bfl-1
T6 chain: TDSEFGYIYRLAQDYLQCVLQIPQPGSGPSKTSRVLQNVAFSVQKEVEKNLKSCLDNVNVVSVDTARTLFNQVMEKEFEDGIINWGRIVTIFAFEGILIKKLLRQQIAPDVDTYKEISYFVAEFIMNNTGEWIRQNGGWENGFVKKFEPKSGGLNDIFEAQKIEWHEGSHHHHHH

[7] = target: Mcl-1 in human cancer cell lines (HeLa, colon cancer lines) (human, UniProt Q07820 1-350); assay: cell-based or functional assay
[8] = target: T2, human Mcl-1 a.a. 172-327 with …; assay: ratio of the KD of the next tightest BCL2 protein to the KD of the target, BLI
[9] = target: T1, human Bcl-B a.a. 11-175 with C-terminal …; assay: BLI, biotinylated target on streptavidin sensor, range of analyte concentrations
[10] = target: T2, human Mcl-1 a.a. 172-327 with …; assay: as above
[11] = target: T3, human Bcl-2 a.a. 1-207 with C-terminal …; assay: as above
Target sequence in this assay (P10415 other isoform, or with tags, fused parts or gaps limits assumed): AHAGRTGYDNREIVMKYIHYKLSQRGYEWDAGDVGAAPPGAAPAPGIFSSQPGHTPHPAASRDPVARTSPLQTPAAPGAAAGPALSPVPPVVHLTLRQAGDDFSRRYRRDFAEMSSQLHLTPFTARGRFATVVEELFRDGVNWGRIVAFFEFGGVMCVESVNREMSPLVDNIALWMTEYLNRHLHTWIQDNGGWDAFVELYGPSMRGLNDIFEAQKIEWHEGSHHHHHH

[12] = target: T4, human Bcl-w a.a. 1-182 with C-terminal …; assay: as above
[13] = target: T5, human Bcl-XL a.a. 1-205 with C-terminal …; assay: as above
Target sequence in this assay (Q07817 other isoform, or with tags, fused parts or gaps limits assumed): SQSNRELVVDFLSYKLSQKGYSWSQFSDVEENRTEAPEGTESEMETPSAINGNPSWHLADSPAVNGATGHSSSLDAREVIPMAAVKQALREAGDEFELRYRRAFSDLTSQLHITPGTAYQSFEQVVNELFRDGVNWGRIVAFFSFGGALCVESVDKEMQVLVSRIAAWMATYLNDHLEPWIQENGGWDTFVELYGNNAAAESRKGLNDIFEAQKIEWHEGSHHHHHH

[14] = target: T6, human Bfl-1 a.a. 1-153 (C4S) with …; assay: as above
[15] = target: T2, human Mcl-1 a.a. 172-327 with …; assay: BLI
[16] = target: T1, human Bcl-B a.a. 11-175 with C-terminal …; assay: BLI, biotinylated target on streptavidin sensor
[17] = target: T7, Epstein-Barr virus BHRF1 a.a. 1-161 with C-terminal avi-6his tag (Epstein-Barr virus); assay: BLI, biotinylated target on streptavidin sensor
T7 construct: also called EBV BHRF1; BHRF1-biotin
T7 chain: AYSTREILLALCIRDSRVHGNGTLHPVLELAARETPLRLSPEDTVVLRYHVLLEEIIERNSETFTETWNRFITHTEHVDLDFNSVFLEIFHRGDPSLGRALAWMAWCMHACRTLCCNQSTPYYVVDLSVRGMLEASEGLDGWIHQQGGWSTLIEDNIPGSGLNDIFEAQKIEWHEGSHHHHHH

[18] = target: T2, human Mcl-1 a.a. 172-327 with …; assay: BLI, biotinylated target on streptavidin sensor
[19] = target: T3, human Bcl-2 a.a. 1-207 with C-terminal …; assay: BLI, biotinylated target on streptavidin sensor
[20] = target: T4, human Bcl-w a.a. 1-182 with C-terminal …; assay: BLI, biotinylated target on streptavidin sensor
[21] = target: T5, human Bcl-XL a.a. 1-205 with C-terminal …; assay: BLI, biotinylated target on streptavidin sensor
[22] = target: T6, human Bfl-1 a.a. 1-153 (C4S) with …; assay: BLI, biotinylated target on streptavidin sensor
[23] = target: T7, Epstein-Barr virus BHRF1 a.a. 1-161 …; assay: yeast surface display titration (apparent KD)
[24] = target: T2, human Mcl-1 a.a. 172-327 with …; assay: yeast surface display titration (apparent KD)
[25] = target: T3, human Bcl-2 a.a. 1-207 with C-terminal …; assay: yeast surface display titration (apparent KD)
[26] = target: T4, human Bcl-w a.a. 1-182 with C-terminal …; assay: yeast surface display titration (apparent KD)
[27] = target: T5, human Bcl-XL a.a. 1-205 with C-terminal …; assay: yeast surface display titration (apparent KD)
[28] = target: T6, human Bfl-1 a.a. 1-153 (C4S) with …; assay: yeast surface display titration (apparent KD)

Mcl-1 in human cancer cell lines (HeLa, colon cancer lines), sequence (Q07820 whole entry): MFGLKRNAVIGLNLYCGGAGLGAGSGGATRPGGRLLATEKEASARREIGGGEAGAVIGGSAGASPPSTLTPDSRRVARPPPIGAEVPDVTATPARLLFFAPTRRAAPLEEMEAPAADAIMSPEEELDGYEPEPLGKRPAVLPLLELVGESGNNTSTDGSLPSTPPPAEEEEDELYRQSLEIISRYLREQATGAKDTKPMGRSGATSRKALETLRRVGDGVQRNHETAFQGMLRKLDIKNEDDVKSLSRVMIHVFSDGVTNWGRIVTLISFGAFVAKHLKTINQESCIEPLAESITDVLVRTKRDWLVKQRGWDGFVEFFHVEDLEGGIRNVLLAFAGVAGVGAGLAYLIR

B1: M-CDP03 (designed binder)
chain: ADPKKVLDKAKDQAENRVRELKQDLERLYKEARKLDLTQEMRRKLQEKAAAAMIRAIGDINNAIYQALQEADKLKKAGLVNSQQLDELKRRLEELQKEASRKAQAYGEEFMLKLEY
binding result [1]: no binding (tested: 50 nM)
binding result [2]: binds
binding result [3]: no binding (tested: 50 nM)
binding result [4]: no binding (tested: 50 nM)
binding result [5]: no binding (tested: 50 nM)
binding result [6]: no binding (tested: 50 nM)

B2: MINDI (Mcl-1-inhibiting design acting intracellularly) (designed binder)
chain: ADPKKVLDKAKDQAENRVRELKQVLEELYKEARKLDLTQEMRKKLIERYAAAIIRAIGDINNAIYQAKQEAEKLKKAGLVNSQQLDELLRRLDELQKEASRKANEYGREFELKLEY
notes: also called M-CDP04; αMCL1
decrease of the EC50 of A-1331852 in colon cancer lines on expression of αMCL1 [7]: 4.6 fold
Specificity [8]: 93000 fold
Kd [9]: 40 µM
Kd [10]: 0.00015 µM
Kd [11]: 14.2 µM
Kd [12]: 200 µM
Kd [13]: 400 µM
Kd [14]: 30 µM

B3: BINDI N62S (designed binder)
chain: ADPKKVLDKAKDQAENRVRELKQKLEELYKEARKLDLTQEMRRKLELRYIAAMLMAIGDIYSAIRQAKQEADKLKKAGLVNSQQLDELKRRLEELKEEASRKARDYGREFQLKLEY
fold decrease of affinity relative to BINDI [15]: 6 fold
Kd [16]: 50 µM
Kd [17]: 0.00016 µM
Kd [18]: 0.23 µM
Kd [19]: 30 µM
Kd [20]: 4.6 µM
Kd [21]: 8 µM
Kd [22]: 4 µM

B4: BbpD04.2 (designed binder)
chain: B3 chain with P3W, Q13I, L28F, R33M, E46M, Y49W, Y61F, S62N, A103C
Kd [23]: 0.0006 µM
Kd [24]: 0.026 µM
Kd [25]: 0.033 µM
Kd [26]: 0.04 µM
Kd [27]: 0.031 µM
Kd [28]: 0.07 µM
